Biological target: QP3732 (Her2M2-Fc)
Assay: ELISA

B1: pertuzumab (antibody, V domains shown)
VH: EVQLVESGGGLVQPGGSLRLSCAASGFTFTDYTMDWVRQAPGKGLEWVADVNPNSGGSIYNQRFKGRFTLSVDRSKNTLYLQMNSLRAEDTAVYYCARNLGPSFYFDYWGQGTLVTVSS
VL: DIQMTQSPSSLSASVGDRVTITCKASQDVSIGVAWYQQKPGKAPKLLIYSASYRYTGVPSRFSGSGSGTDFTLTISSLQPEDFATYYCQQYYIYPYTFGQGTKVEIK
EC50: 0.0307 µg/mL
